T1: p55 TNF receptor, endogenous in Ramos cells (human, UniProt P19438 30-455)
T1 construct: whole, on cells; TNF-receptor complex precipitated as described by Zhang et al., 2000
T1 sequence (looked up): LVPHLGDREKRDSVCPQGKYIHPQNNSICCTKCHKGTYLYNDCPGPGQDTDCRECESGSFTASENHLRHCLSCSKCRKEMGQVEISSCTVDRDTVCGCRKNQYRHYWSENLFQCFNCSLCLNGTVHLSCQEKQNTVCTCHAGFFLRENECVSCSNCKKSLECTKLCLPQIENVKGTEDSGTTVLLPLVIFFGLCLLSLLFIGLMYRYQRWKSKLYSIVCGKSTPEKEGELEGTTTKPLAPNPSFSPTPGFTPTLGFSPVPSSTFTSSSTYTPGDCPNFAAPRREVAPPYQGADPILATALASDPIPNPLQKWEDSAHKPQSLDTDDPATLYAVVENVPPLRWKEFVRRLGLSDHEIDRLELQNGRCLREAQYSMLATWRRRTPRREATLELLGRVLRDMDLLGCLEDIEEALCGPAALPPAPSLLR

T2: NF-κB2/p100, endogenous (human, UniProt Q00653 1-900)
T2 construct: mature
T2 sequence (looked up): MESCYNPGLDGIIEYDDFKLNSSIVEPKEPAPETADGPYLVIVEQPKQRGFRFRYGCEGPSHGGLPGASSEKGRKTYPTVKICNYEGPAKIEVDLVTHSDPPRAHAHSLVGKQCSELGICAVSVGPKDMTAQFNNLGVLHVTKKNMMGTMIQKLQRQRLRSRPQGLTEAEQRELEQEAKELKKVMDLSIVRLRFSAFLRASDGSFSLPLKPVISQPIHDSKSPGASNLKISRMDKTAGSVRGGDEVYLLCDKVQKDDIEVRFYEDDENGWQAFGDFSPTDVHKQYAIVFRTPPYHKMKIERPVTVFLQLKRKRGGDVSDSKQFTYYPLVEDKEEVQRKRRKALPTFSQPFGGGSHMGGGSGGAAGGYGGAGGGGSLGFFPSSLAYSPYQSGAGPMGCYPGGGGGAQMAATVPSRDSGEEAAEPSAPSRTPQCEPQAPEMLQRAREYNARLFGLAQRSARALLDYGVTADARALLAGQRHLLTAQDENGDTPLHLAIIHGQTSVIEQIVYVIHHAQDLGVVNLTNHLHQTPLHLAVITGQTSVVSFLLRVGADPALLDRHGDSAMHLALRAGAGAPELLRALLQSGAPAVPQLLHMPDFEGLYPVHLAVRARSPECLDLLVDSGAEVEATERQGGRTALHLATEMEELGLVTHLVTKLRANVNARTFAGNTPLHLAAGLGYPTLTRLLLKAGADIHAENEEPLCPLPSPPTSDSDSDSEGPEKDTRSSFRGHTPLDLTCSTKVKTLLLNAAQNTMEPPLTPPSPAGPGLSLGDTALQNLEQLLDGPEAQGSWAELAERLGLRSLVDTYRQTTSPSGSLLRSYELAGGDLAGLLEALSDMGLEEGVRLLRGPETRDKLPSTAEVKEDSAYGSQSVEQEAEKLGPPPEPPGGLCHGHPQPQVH

B1: NF-κB2/p52, endogenous (other, human, UniProt Q00653 1-454, looked up)
chain: MESCYNPGLDGIIEYDDFKLNSSIVEPKEPAPETADGPYLVIVEQPKQRGFRFRYGCEGPSHGGLPGASSEKGRKTYPTVKICNYEGPAKIEVDLVTHSDPPRAHAHSLVGKQCSELGICAVSVGPKDMTAQFNNLGVLHVTKKNMMGTMIQKLQRQRLRSRPQGLTEAEQRELEQEAKELKKVMDLSIVRLRFSAFLRASDGSFSLPLKPVISQPIHDSKSPGASNLKISRMDKTAGSVRGGDEVYLLCDKVQKDDIEVRFYEDDENGWQAFGDFSPTDVHKQYAIVFRTPPYHKMKIERPVTVFLQLKRKRGGDVSDSKQFTYYPLVEDKEEVQRKRRKALPTFSQPFGGGSHMGGGSGGAAGGYGGAGGGGSLGFFPSSLAYSPYQSGAGPMGCYPGGGGGAQMAATVPSRDSGEEAAEPSAPSRTPQCEPQAPEMLQRAREYNARLFGLA
B2: IκBα, endogenous (other, human, UniProt P25963 1-317, looked up)
chain: MFQAAERPQEWAMEGPRDGLKKERLLDDRHDSGLDSMKDEEYEQMVKELQEIRLEPQEVPRGSEPWKQQLTEDGDSFLHLAIIHEEKALTMEVIRQVKGDLAFLNFQNNLQQTPLHLAVITNQPEIAEALLGAGCDPELRDFRGNTPLHLACEQGCLASVGVLTQSCTTPHLHSILKATNYNGHTCLHLASIHGYLGIVELLVSLGADVNAQEPCNGRTALHLAVDLQNPDLVSLLLKCGADVNRVTYQGYSPYQLTWGRPSTRIQQQLGQLTLENLQMLPESEDEESYDTESEFTEFTEDELPYDDCVFGGQRLTL
notes: mature
B3: C-terminal part of SIVA (amino acids 123-175 in SIVA1 or 58-110 in SIVA2), yeast two-hybrid clone (other)
chain: GKAVCGQCERALCGQCVRTCWGCGSVACTLCGLVDCSDMYEKVLCTSCAMFET
notes: Clone from a human bone marrow two-hybrid library; also called SIVA clone; C-terminal SIVA fragment; not shown: Gal4 fusion partner of the library clone / pGADT7 or pGBKT7 vector; not specified
B4: RelB, endogenous (other, human, UniProt Q01201 1-579, looked up)
chain: MLRSGPASGPSVPTGRAMPSRRVARPPAAPELGALGSPDLSSLSLAVSRSTDELEIIDEYIKENGFGLDGGQPGPGEGLPRLVSRGAASLSTVTLGPVAPPATPPPWGCPLGRLVSPAPGPGPQPHLVITEQPKQRGMRFRYECEGRSAGSILGESSTEASKTLPAIELRDCGGLREVEVTACLVWKDWPHRVHPHSLVGKDCTDGICRVRLRPHVSPRHSFNNLGIQCVRKKEIEAAIERKIQLGIDPYNAGSLKNHQEVDMNVVRICFQASYRDQQGQMRRMDPVLSEPVYDKKSTNTSELRICRINKESGPCTGGEELYLLCDKVQKEDISVVFSRASWEGRADFSQADVHRQIAIVFKTPPYEDLEIVEPVTVNVFLQRLTDGVCSEPLPFTYLPRDHDSYGVDKKRKRGMPDVLGELNSSDPHGIESKRRKKKPAILDHFLPNHGSGPFLPPSALLPDPDFFSGTVSLPGLEPPGGPDLLDDGFAYDPTAPTLFTMLDLLPPAPPHASAVVCSGGAGAVVGETPGPEPLTLDSYQAPGPGDGGTASLVGSNMFPNHYREAAFGGGLLSPGPEAT
notes: mature

Tests used:
RelB, endogenous = molecular target: B4; assay: anti-RelB immunoprecipitation from nuclear extracts of Ramos cells, western blot
Method: (§1) FIG. 3g is an immunoprecipitation analysis with RelB of various NF-κB proteins from nuclear extracts of the Ramos cells, 15 minutes and 4 hours after the application of TNF or CD70 to the cells. Levels of p100, NS and p52 were detected by western blot analysis.
(§2) For immunoprecipitation of the NF-κB proteins, nuclear extracts from 10-20×10⁶ cells were diluted to achieve the following composition: 0.5% NP-40, 10 mM HEPES pH 7.9, 150 mM NaCl, 1 mM EDTA, 1 mM EGTA, 1 mM dithiothreitol (DTT), 1 mM PMSF, and 1× complete protease inhibitor cocktail. Anti-RelB antibody preadsorbed to protein-A-Sepharose beads (Amersham Biosciences) was incubated with precleared nuclear lysates for 2 hours at 4° C. The immunoprecipitates were analyzed by SDS-PAGE using 4-12% Bis-Tris NuPAGE gels (Invitrogen), and the gels were subjected to western blotting as described above.

[1] = molecular target: T1, p55 TNF receptor, endogenous in Ramos …; assay: western blot of the p55 TNF receptor complex from Ramos cells (FIG. 6a)
Method: Transfections, immunoblotting and immunoprecipitations were performed as described in Example 2 and Example 3 of the Examples section. For immunoprecipitation of the CD70/CD27 ligand-receptor complexes from resting PBMC and Ramos cells, cell lysates were prepared as described for the kinase tests aforementioned and incubated for 4 hours at 4° C. with 25 μl of 50% M2-FLAG agarose beads per ml of lysate. The TNF-receptor complex was precipitated as described (Zhang et al., 2000). The signalosome from cell lysates was immunoprecipitated using a 1:1 mixture of two different antibodies against IKK1 (M-280 and H-744, Santa Cruz). Immunoprecipitation was allowed to continue for 2 hours at 4° C., using 10 μg of anti-IKKα antibodies adsorbed to 25 μl of 50% protein-A-Sepharose beads per ml of lysate.

[2] = molecular target: T3, NIK 624-947 (C-terminal part of NIK), yeast two-hybrid construct (human, UniProt Q99558 624-947); assay: yeast two-hybrid, β-galactosidase colour assay in SFY526
T3 construct: Yeast two-hybrid construct used in the β-galactosidase assay in SFY526 yeast; also called C-terminally mutant (NIK 624-947); the C-terminal portion of NIK; not shown: Gal4 fusion partner from pGBKT7 or pGADT7
T3 sequence (Q99558 624-947): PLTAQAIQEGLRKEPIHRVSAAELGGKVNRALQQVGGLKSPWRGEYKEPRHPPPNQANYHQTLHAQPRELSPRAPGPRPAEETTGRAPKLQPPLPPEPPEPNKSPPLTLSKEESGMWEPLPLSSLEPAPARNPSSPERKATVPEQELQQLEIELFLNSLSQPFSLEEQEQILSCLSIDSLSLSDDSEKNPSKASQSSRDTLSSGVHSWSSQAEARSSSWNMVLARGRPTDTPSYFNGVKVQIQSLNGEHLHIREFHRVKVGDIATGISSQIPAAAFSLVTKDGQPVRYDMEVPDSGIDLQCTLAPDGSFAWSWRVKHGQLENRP
Method: FIG. 1a illustrates yeast two-hybrid binding assays of NIK to SIVA. The binding of NIK and its C-terminally mutant (NIK 624-947) to the C-terminal part of SIVA (amino acids 123-175 in SIVA1 or 58-110 in SIVA2) or TRAF2, was assessed using transformed SFY526 yeast. The development of a strong color reaction within 1 hour and 3 hours is indicted as ‘++’ and ‘+’, respectively; ‘−’ indicates no color development within 24 h.
A BamHI/XhoI digested NIK insert from the pcNIK vector was subcloned into BamHI/SalI sites of the Gal4 DNA-binding domain vector pGBKT7 (Clontech). A pre-transformed human bone marrow library (HL4053AH, Clontech) was subjected to two-hybrid screening using pGBKT7-NIK as the bait, according to the manufacturer's instructions (Yeast protocol handbook, Clontech—www.clontech.com) Positive clones were identified by quadruple selection and β-galactosidase activity assay. Binding of the SIVA clone to NIK and NIK624-947 was reconfirmed and binding of NIK to TRAF2 was assessed-by a β-galactosidase expression assay using the yeast SFY526 reporter strain (Clontech) and the pGBKT7 and pGADT7 vectors.

NF-κB2/p100, endogenous = molecular target: T2, NF-κB2/p100, endogenous; assay: anti-RelB immunoprecipitation from nuclear extracts of Ramos cells, western blot
Method: as §1, §2

B1: binds (RelB, endogenous).

B2: binds [1].

B3: binds [2].

B4: binds (NF-κB2/p100, endogenous).
